Data as given in patent US11795460B2, “Compositions and methods for TTR gene editing and treating ATTR amyloidosis” (Intellia Therapeutics, Inc., priority 2017, dated 2023).
Strand notation (5' to 3'): a small letter for the sugar, then the base; units joined by * are phosphorothioate-linked, units joined directly phosphodiester-linked; [ ] holds rarer units or linkages, { } end groups; capitals alone tell only the bases. m = 2'-O-methyl; r = 2'-OH (RNA)

Tests used:
[1] = test system: TTR; test: TTR editing in primary cyno hepatocytes electroporated with Spy Cas9 protein and sgRNAs (Tables 14, 15); format: cell-based, cynomolgus monkey; settings: Table 15; primary cyno hepatocytes electroporated with Spy Cas9 protein (RNP) and cyno specific sgRNAs
Experimental: (§1) Primary liver hepatocytes. Primary human liver hepatocytes (PHH) and primary cynomolgus liver hepatocytes (PCH) (Gibco) were cultured per the manufacturer's protocol (Invitrogen, protocol 11.28.2012). In brief, the cells were thawed and resuspended in hepatocyte thawing medium with supplements (Gibco, Cat. CM7000) followed by centrifugation at 100 g for 10 minutes for human and 80 g for 4 minutes for cyno. The supernatant was discarded and the pelleted cells resuspended in hepatocyte plating medium plus supplement pack (Invitrogen, Cat. A1217601 and CM3000). Cells were counted and plated on Bio-coat collagen I coated 96-well plates (ThermoFisher, Cat. 877272) at a density of 33,000 cells/well for human or 60,000 cells/well for cyno (or 65,000 cells/well when assaying effects on TTR protein, described further below). Plated cells were allowed to settle and adhere for 6 or 24 hours in a tissue culture incubator at 37° C. and 5% CO2 atmosphere. After incubation cells were checked for monolayer formation and media was replaced with hepatocyte culture medium with serum-free supplement pack (Invitrogen, Cat. A1217601 and CM4000).
[…] formation was performed prior to electroporation or transfection of Spy Cas9 protein loaded with guide RNAs (RNPs) onto cells. For dual guide (dgRNAs), individual crRNA and trRNA was pre-annealed by mixing equivalent amounts of reagent and incubating at 95° C. for 2 min and cooling to room temperature. Single guide (sgRNAs) were boiled at 95° C. for 2 min and cooling to room temperature. The boiled dgRNA or sgRNA was incubated with Spy Cas9 protein in Optimem for 10 minutes at room temperature to form a ribonucleoprotein (RNP) complex.
For RNP electroporation into primary human and cyno hepatocytes, the cells are thawed and resuspended in Lonza electroporation Primary Cell P3 buffer at a concentration of 2500 cells per μL for human hepatocytes and 3500 cells per μL for cyno hepatocytes. A volume of 20 μL of resuspended cells and 5 μL of RNP are mixed together per guide. 20 μL of the mixture is placed into a Lonza electroporation plate. The cells were electroporated using the Lonza nucleofector with the preset protocol EX-147. Post electroporation, the cells are transferred into a Biocoat plate containing pre-warmed maintenance media and placed in a tissue culture incubator at 37° C. and 5% CO2.
Transfected cells were harvested post-transfection at 24, 48, or 72 hours. The genomic DNA was extracted from each well of a 96-well plate using 50 μL/well BuccalAmp DNA Extraction solution (Epicentre, Cat. QE09050) per manufacturer's protocol. All DNA samples were subjected to PCR and subsequent NGS analyses, as described herein.
(§2) To quantitatively determine the efficiency of editing at the target location in the genome, sequencing was utilized to identify the presence of insertions and deletions introduced by gene editing.
(§3) Primers were designed around the target site within the gene of interest (e.g. TTR), and the genomic area of interest was amplified.
(§4) Additional PCR was performed per the manufacturer's protocols (Illumina) to add chemistry for sequencing. The amplicons were sequenced on an Illumina MiSeq instrument. The reads were aligned to a reference genome (e.g., the human reference genome (hg38), the cynomologus reference genome (mf5), the rat reference genome (rn6), or the mouse reference genome (mm10)) after eliminating those having low quality scores. The resulting files containing the reads were mapped to the reference genome (BAM files), where reads that overlapped the target region of interest were selected and the number of wild type reads versus the number of reads which contain an insertion, substitution, or deletion was calculated.
The editing percentage (e.g., the “editing efficiency” or “percent editing” or “indel frequency”) is defined as the total number of sequence reads with insertions/deletions (“indels”) or substitutions over the total number of sequence reads, including wild type. […]

[2] = test system: TTR; test: TTR editing in primary cyno hepatocytes treated with LNP formulated Spy Cas9 mRNA (SEQ ID NO: 2) and sgRNAs (Tables 17, 18); format: cell-based, cynomolgus monkey; settings: LNP formulated Spy Cas9 mRNA (SEQ ID NO: 2) and cyno matched sgRNAs, 72 hours post treatment
Experimental: as §1
In general, the lipid nanoparticle components were dissolved in 100% ethanol with the lipid component of various molar ratios. The RNA cargos were dissolved in 25 mM citrate, 100 mM NaCl, pH 5.0, resulting in a concentration of RNA cargo of approximately 0.45 mg/mL. The LNPs were formulated with a lipid amine to RNA phosphate (N:P) molar ratio of about 4.5 or about 6, with the ratio of mRNA to gRNA at 1:1 by weight.
The LNPs were formed by microfluidic mixing of the lipid and RNA solutions using a Precision Nanosystems NanoAssemblr™ Benchtop Instrument, according to the manufacturer's protocol. A 2:1 ratio of aqueous to organic solvent was maintained during mixing using differential flow rates. After mixing, the LNPs were collected, diluted in water (approximately 1:1 v/v), held for 1 hour at room temperature, and further diluted with water (approximately 1:1 v/v) before final buffer exchange. The final buffer exchange into 50 mM Tris, 45 mM NaCl, 5% (w/v) sucrose, pH 7.5 (TSS) was completed with PD-10 desalting columns (GE). If required, formulations were concentrated by centrifugation with Amicon 100 kDa centrifugal filters (Millipore). The resulting mixture was then filtered using a 0.2 μm sterile filter. The final LNP was stored at −80° C. until further use.
as §2, §3, §4
The editing percentage (e.g., the “editing efficiency” or “percent editing” or “indel frequency”) is defined as the total number of sequence reads with insertions/deletions (“indels”) or substitutions over the total number of sequence reads, including wild type.
Lipid nanoparticle formulations of modified sgRNAs targeting human TTR and the cyno matched sgRNA sequences were tested on primary human hepatocytes and primary cyno hepatocytes in a dose response curve. Primary human and cyno hepatocytes were plated as described in Example 1. […]

Molecule | Avg % Deletion [1] [%] | Avg % Edit [1] [%] | Avg % Insert [1] [%] | 12.5 ng mRNA, 3.9 nM sgRNA % Edit [2] [%]
G000510: TTR Cyno specific sgRNA modified sequence, SEQ ID No. 122; guide sequence of CR005370 (nucleic acid) guide: mA*mC*mU*rUrGrUrCrUrUrCrUrCrUrArUrArCrCrCrArGrUrUrUrUrArGrAmGmCmUmAmGmAmAmAmUmAmGmCrArArGrUrUrArArArArUrArArGrGrCrUrArGrUrCrCrGrUrUrArUrCrAmAmCmUmUmGmAmAmAmAmAmGmUmGmGmCmAmCmCmGmAmGmUmCmGmGmUmGmCmU*mU*mU*mU | 1.77 | 90.80 | 89.13 | 61.87
G000508: TTR Cyno specific sgRNA modified sequence, SEQ ID No. 120; guide sequence of CR005368 (nucleic acid) guide: mC*mC*mU*rCrCrUrCrUrGrCrCrUrCrGrCrUrGrGrArCrGrUrUrUrUrArGrAmGmCmUmAmGmAmAmAmUmAmGmCrArArGrUrUrArArArArUrArArGrGrCrUrArGrUrCrCrGrUrUrArUrCrAmAmCmUmUmGmAmAmAmAmAmGmUmGmGmCmAmCmCmGmAmGmUmCmGmGmUmGmCmU*mU*mU*mU | 4.17 | 45.63 | 41.57 | –
G000511: TTR Cyno specific sgRNA modified sequence, SEQ ID No. 123; guide sequence of CR005371 (nucleic acid) guide: mA*mA*mG*rUrGrArCrUrUrCrCrArGrUrArArGrArUrUrGrUrUrUrUrArGrAmGmCmUmAmGmAmAmAmUmAmGmCrArArGrUrUrArArArArUrArArGrGrCrUrArGrUrCrCrGrUrUrArUrCrAmAmCmUmUmGmAmAmAmAmAmGmUmGmGmCmAmCmCmGmAmGmUmCmGmGmUmGmCmU*mU*mU*mU | 2.00 | 62.77 | 60.87 | –
G000507: TTR Cyno specific sgRNA modified sequence, SEQ ID No. 119; guide sequence of CR005367 (nucleic acid) guide: mC*mC*mA*rGrUrCrCrArGrCrGrArGrGrCrArGrArGrGrGrUrUrUrUrArGrAmGmCmUmAmGmAmAmAmUmAmGmCrArArGrUrUrArArArArUrArArGrGrCrUrArGrUrCrCrGrUrUrArUrCrAmAmCmUmUmGmAmAmAmAmAmGmUmGmGmCmAmCmCmGmAmGmUmCmGmGmUmGmCmU*mU*mU*mU | 4.60 | 71.17 | 67.03 | –
